In article PMC5851525, “Quantitative analysis of the impact of a human pathogenic mutation on the CCT5 chaperonin subunit using a proxy archaeal ortholog^” (Biochemistry and Biophysics Reports, 2017):

Key:
Pf-CD1 [1] = molecular target: T1, Pf-CD1 (Pyrococcus furiosus, UniProt Q8TZL6, DEL/LAST/OF/RESIDUES); assay: isothermal titration calorimetry, one set of sites model; format: binding
T1 construct: gene PF1974; C-terminal deletion (last 22 residues of Pf-Cpn removed); expressed in E. coli BL21(DE3) from pET33b; homo-hexadecamer (two octameric rings)
T1 sequence (Q8TZL6 1-527): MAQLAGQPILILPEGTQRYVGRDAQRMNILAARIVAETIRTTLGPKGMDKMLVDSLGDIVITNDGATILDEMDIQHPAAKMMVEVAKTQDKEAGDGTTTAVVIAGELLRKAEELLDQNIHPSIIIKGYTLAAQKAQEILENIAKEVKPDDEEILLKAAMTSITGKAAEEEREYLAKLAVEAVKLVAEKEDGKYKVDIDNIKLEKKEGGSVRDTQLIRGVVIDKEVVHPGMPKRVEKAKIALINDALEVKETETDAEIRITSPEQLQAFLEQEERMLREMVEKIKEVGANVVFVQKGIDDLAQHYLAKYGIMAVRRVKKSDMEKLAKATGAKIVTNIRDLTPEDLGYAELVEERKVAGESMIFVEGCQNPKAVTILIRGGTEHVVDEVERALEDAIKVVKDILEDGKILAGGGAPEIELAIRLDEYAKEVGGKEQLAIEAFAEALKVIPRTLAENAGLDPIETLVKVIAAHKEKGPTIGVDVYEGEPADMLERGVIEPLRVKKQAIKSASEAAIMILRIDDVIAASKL
Description: (§1) isothermal titration calorimetry, one set of sites model on Pf-CD1

Pf-CD1 [2] = molecular target: T2, Pf-CD1 (Pyrococcus furiosus, UniProt Q8TZL6, I138H); assay: as above; format: binding
T2 construct: gene PF1974; C-terminal deletion (last 22 residues of Pf-Cpn removed); expressed in E. coli BL21(DE3) from pET33b; homo-hexadecamer (two octameric rings)
Description: as §1

Pf-CD1 [3] = molecular target: T3, Pf-CD1 (Pyrococcus furiosus, UniProt Q8TZL6, I138R); assay: as above; format: binding
T3 construct: gene PF1974; C-terminal deletion (last 22 residues of Pf-Cpn removed); expressed in E. coli BL21(DE3) from pET33b; homo-hexadecamer (two octameric rings)
Description: as §1

[4] = molecular target: Pf-CD1 Ile138His (Pyrococcus furiosus); assay: ITC; dilution experiment, 18 successive injections, 25 °C; fit to a two-state hexadecamer-monomer equilibrium (hexadecamer to monomers); parameters per subunit
[5] = molecular target: Pf-CD1, Pyrococcus furiosus chaperonin subunit (Pf-Cpn) with the last 22 amino acids deleted (Pyrococcus furiosus); assay: as above
[6] = molecular target: Pf-CD1 Ile138Arg (Pyrococcus furiosus); assay: as above

Nc1ncnc2c1ncn2[C@@H]1O[C@H](COP(=O)(O)OP(=O)(O)OP(=O)(O)O)[C@@H](O)[C@H]1O [ATP]
Kd (Pf-CD1 [1]): 0.32 ± 0.05 µM | Kd (Pf-CD1 [2]): 0.3 ± 0.02 µM | Kd (Pf-CD1 [3]): 0.2 ± 0.01 µM

Pf-CD1 Ile138His (domain or fragment)
Kd [4]: 0.43 µM | dH of dissociation (∆Hd) [4]: -250 kcal/mol | stoichiometry N [4]: 16

Pf-CD1, Pyrococcus furiosus chaperonin subunit (Pf-Cpn) with the last 22 amino acids deleted (domain or fragment)
Kd [5]: 0.31 µM | dH of dissociation (∆Hd) [5]: -350 kcal/mol | stoichiometry N [5]: 16

Pf-CD1 Ile138Arg (domain or fragment)
Kd [6]: 0.1 µM | dH of dissociation (∆Hd) [6]: -49 kcal/mol | stoichiometry N [6]: 16
